Assay results reported in US20210009693A1 (MABSPACE BIOSCIENCES SUZHOU, published 2021).

Experiments:
[1] = target: T1, hPD-L2-Fc (human, UniProt Q9BQ51 20-219); test: ELISA, plate coated with hPD-L2-Fc
T1 construct: Acrobiosystems PD2-H5251; also called human PD-L2 protein; not shown: Fc tag
T1 sequence (looked up): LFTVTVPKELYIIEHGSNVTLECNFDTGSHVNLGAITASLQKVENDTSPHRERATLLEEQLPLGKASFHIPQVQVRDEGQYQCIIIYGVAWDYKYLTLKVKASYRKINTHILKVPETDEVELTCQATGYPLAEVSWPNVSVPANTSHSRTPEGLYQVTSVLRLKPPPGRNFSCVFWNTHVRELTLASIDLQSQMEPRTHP
Description: Briefly, high-binding clear polystyrene 96 well plates (Nunc) were coated with 100 μl/well of a 0.5 μg/ml human PD-L1-Fc (Acrobiosystems, Cat #PD1-H5258) or 100 μl/well of a 1 μg/ml hPD-L2-Fc (Acrobiosystems, Cat #PD2-H5251), respectively, in high pH coating buffer (0.16% Na2CO3+0.3% NaHCO₃, pH 9.8) and incubated overnight at 4° C. Then the plates were washed once on an automatic plate washer using washing buffer (PBS+0.1% Tween 20 (Amresco)). 200 μl of blocking buffer (PBS+1% BSA+1% normal goat serum+0.05% Tween-20) was added to each well and incubated for 2 hours at room temp. Then add 100 μl 2 μg/ml purified PD-L1 antibodies with dilution buffer (PBS+1% BSA+1% normal goat serum+0.01% Tween-20) and incubate for 1 hour at RT. The plates were then washed 3 times with washing buffer. 100 μl/well of a solution of HRP conjugated goat anti-mouse IgG antibody (1:20000, Abcam) in dilution buffer was then added to each well of the plate. After that the ELISA plates were allowed to incubate for 60 min at RT then the plates were washed 3 times with 250 μl/well washing buffer. Finally, 100 μl/well of TMB was added to each well for 15 min and the reaction was terminated using 50 ul/well of 0.16 M/L sulfuric acid. The plates were read on a Thermo Multiscan FC at 450 nM (see FIG. 6G).

[2] = target: T2, wild type human PD-L1-Fc protein (SEQ ID NO: 107) (human); test: ELISA on captured PD-L1-Fc, as in Example 18A
T2 construct: Extracellular human PD-L1 (amino acid 19-238) with Fc fragment of human IgG1, expressed in 293T cells and used as culture supernatant; also called WT PD-L1; wild-type PD-L1
T2 sequence (chain, as listed by the source limits assumed): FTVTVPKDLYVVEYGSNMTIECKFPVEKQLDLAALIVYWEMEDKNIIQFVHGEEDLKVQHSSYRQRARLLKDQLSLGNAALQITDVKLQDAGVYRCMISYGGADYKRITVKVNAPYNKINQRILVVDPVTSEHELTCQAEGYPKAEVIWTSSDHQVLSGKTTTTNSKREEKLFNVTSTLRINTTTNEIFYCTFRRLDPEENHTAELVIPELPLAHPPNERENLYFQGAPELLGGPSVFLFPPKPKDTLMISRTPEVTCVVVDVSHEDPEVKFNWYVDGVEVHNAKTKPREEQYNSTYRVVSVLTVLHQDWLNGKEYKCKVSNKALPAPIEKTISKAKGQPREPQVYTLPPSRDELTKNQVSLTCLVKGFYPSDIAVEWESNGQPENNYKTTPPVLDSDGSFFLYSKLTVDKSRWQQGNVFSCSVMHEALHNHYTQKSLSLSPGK

[3] = target: T3, human PD-L1-Fc mutant E58A (human); test: ELISA on captured PD-L1-Fc, as in Example 18A
T3 construct: Position 58 counts on native human PD-L1 (NP_054862.1); also called E58A mutant
T3 sequence (chain, as listed by the source E58A E58A limits assumed): as the sequence (chain, as listed by the source limits assumed) above, with E40A counted along it

[4] = target: T4, Recombinant Human PD-L1/CD274 Protein (hPD-L1-his) (human, UniProt Q9NZQ7 19-238); test: ELISA, purified mouse antibody on coated hPD-L1-his
T4 construct: range 19-238; ACRO Biosystem PD1-H5229, made in HEK293; also called human PD-L1-his; hPD-L-his
T4 sequence (Q9NZQ7 other isoform, or with tags, fused parts or gaps limits assumed): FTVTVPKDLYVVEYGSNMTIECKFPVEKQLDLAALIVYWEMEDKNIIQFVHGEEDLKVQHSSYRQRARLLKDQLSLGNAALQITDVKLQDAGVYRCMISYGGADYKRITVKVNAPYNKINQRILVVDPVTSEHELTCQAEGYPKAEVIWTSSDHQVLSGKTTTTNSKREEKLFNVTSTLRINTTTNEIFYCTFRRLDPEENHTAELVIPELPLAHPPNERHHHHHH
Description: High-binding clear polystyrene 96 well plates (Nunc) were coated with 100 μl/well of a 0.5 μg/ml hPD-L1-his in high pH coating buffer and incubated overnight 4° C. Then plates were washed once on an automatic plate washer using washing buffer (PBS+0.1% Tween 20 (Sigma)). 200 μl of blocking buffer (PBS+1% BSA+1% normal goat serum+0.05% Tween-20) was added to each well and incubated 2 hours at room temp. Then add serially diluted purified antibodies with dilution buffer (PBS+1% BSA+1% normal goat serum+0.01% Tween-20) and incubate for 1 hour at RT. The plates were then washed 3 times using the method described above. 100 μl/well of a solution of HRP conjugated goat anti-mouse Fc antibody (Abcam) in dilution buffer was then added to each well of the plate. After that the ELISA plates were allowed to incubate for 60 min at RT then plates were washed 3 times with 250 μl/well washing buffer. Finally, 100 μl/well of TMB was added to each well and was terminated using 0.64M H₂SO₄. The plates were read on a Thermo Multiscan FC at 450 nM (see FIG. 3).

[5] = target: T5, Human PD-L1/CD274 with C-Fc Tag (hPD-L1-Fc) (human, UniProt Q9NZQ7 19-238); test: blocking ELISA on coated hPD-L1-Fc; blocked ligand: biotinylated hPD-1-Fc-N297A
T5 construct: range 19-238; ACRO Biosystem PD1-H5258, made in HEK293; also called human PD-L1-Fc; not shown: Fc fragment of human IgG1 at C-terminus
T5 sequence (Q9NZQ7 19-238 limits assumed): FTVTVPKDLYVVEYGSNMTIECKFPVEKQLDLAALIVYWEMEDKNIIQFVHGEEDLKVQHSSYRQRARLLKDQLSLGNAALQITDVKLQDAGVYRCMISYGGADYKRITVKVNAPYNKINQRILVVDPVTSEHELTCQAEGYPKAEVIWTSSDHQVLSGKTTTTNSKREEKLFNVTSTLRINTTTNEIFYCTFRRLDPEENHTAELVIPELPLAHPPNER
Description: High-binding clear polystyrene 96 well plates (Nunc) were coated with 100 μl/well of coating solution consisting of 0.5 μg/ml hPD-L1-Fc overnight at 4° C. Then washed once on an automatic plate washer using washing buffer PBS+0.1% Tween 20 (Sigma). 200 μl of blocking buffer (PBS+1% BSA+1% normal goat serum+0.05% Tween-20) was added to each well and incubated for 2 hours at room temperature. Then add serial diluted antibodies (from 10 μg/ml to 0.0006 μg/ml) with dilution buffer (PBS+1% BSA+1% normal goat serum+0.01% Tween-20) and incubate for 1 hour at RT. The plates were then washed 3 times using the method described above. […] After the plates were washed 3 times, 100 μl/well of a solution of HRP conjugated Neutravidin antibody (Pierce) diluted in dilution buffer was then added to each well of the plate. After that the ELISA plates were allowed to incubate for 60 min at RT then plates were washed 3 times with 250 μl/well washing buffer. Finally, 100 μl/well of TMB was added to each well and reaction was terminated using 0.64M H₂SO₄. The plates were read on a Thermo Multiscan FC at 450 nM (see FIG. 4A).

[6] = target: T6, Recombinant Mouse PD-L1/CD274 Protein (mPD-L1-his) (mouse, UniProt Q9EP73 19-238); test: ELISA, 20 ug/ml antibody on coated mouse PD-L1 (his-tagged per text, mPD-L1-Fc per sheet title)
T6 construct: range 19-238; ACRO Biosystem PD1-M5220; also called mouse PD-L1-his
T6 sequence (Q9EP73 other isoform, or with tags, fused parts or gaps limits assumed): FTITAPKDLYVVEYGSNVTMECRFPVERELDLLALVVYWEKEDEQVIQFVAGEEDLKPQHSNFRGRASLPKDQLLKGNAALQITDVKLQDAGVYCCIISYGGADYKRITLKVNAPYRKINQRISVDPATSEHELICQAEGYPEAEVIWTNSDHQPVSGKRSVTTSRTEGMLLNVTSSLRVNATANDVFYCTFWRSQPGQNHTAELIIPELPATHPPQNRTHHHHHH
Description: High-binding clear polystyrene 96 well plates (Nunc) were coated with 100 μl/well of 1 μg/ml mouse PD-L1-his in high pH coating buffer and incubated overnight at 4° C. Then plates were washed once on an automatic plate washer using washing buffer (PBS+0.1% Tween 20 (Sigma)). 200 μl of blocking buffer (PBS+1% BSA+1% normal goat serum+0.05% Tween-20) was added to each well and incubated for 2 hours at room temp. Then add 20 μg/ml purified hybridoma mouse antibodies in dilution buffer (PBS+1% BSA+1% normal goat serum+0.01% Tween-20) and incubate for 1 hour at RT. The plates were then washed 3 times with 250 μl/well washing buffer. 100 μl/well of a solution of HRP conjugated goat anti-mouse Fc antibody (Abcam) in dilution buffer was then added to each well of the plate. After that the ELISA plates were allowed to incubate for 60 min at RT then plates were washed 3 times with 250 μl/well washing buffer. Finally, 100 μl/well of TMB was added to each well and the reaction was terminated using 0.64M H₂SO₄. The plates were read on a Thermo Multiscan FC at 450 nM (see FIG. 6F).

B1: 26F5 (antibody, V domains shown)
VH: QVQLQQPGAELVKPGASVKLSCKASGYTFPSYWMHWMKQRPGQGLEWIGMIQPSTSGTIYNERFKNQVTLTVDKSSSTAYMQLSSQTSEDSAVYYCARGTGTVDYFDYWGQGTTLTVSS
VL: DIVLTQSPASLAVSLGQRATISCRASESVDSYGNSFIHWYQQKPGQPPKLLIHRASNLESGIPATFSGSGSRTDFTLTINPVEADDVATYYCQQSKEDPYTFGGGTKLEIK
notes: Mouse monoclonal from hybridoma; also called mouse monoclonal antibody 26F5
For B1, the binding result [1] was “no binding (tested: 2 ug/ml)”, the “Mean OD450” value [2] was 1.53 OD450 and the “OD450 nM of sample-1” value [2] was 1.39 OD450. For the same binder, the “OD450 nM of sample-2” value [2] was 1.68 OD450, the “% of binding of Ab to E58A mutant vs. that to WT PD-L1” value [3] was 60.6% and the “Mean OD450” value [3] was 0.93 OD450. For the same binder, the “OD450 nM of sample-1” value [3] was 1.18 OD450, the “OD450 nM of sample-2” value [3] was 0.678 OD450 and the “EC50 (read off the curve)” value [4] was roughly 0.003 µg/mL. For the same binder, the “IC50 (read off the curve)” value [5] was roughly 0.02 µg/mL and the binding result [6] was “no binding (tested: 20 ug/ml)”.
